What was measured:
Assay in all cases: two-hybrid library CCmax;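 note: natural log of median RNA to DNA barcode read ratio; higher means stronger binding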
P2-AA-1HGe-A = molecular target: T1, P2-AA-1HGe-A; conditions: mean of both orientations
T1 chain: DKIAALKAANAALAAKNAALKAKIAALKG

P2-AA-1HGe-D = molecular target: T2, P2-AA-1HGe-D; conditions: mean of both orientations
T2 chain: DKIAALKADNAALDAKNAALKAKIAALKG

P2-AA-1HGe-M = molecular target: T3, P2-AA-1HGe-M; conditions: mean of both orientations
T3 chain: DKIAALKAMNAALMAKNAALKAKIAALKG

P2-AA-1HGe-Q = molecular target: T4, P2-AA-1HGe-Q; conditions: mean of both orientations
T4 chain: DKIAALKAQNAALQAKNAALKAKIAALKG

P2-AA-1HGe-T = molecular target: T5, P2-AA-1HGe-T; conditions: mean of both orientations
T5 chain: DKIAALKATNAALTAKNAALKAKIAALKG

P2-AA = molecular target: T6, P2-AA; conditions: mean of both orientations
T6 chain: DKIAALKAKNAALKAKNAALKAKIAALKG

4H2614-AA = molecular target: T7, 4H2614-AA
T7 chain: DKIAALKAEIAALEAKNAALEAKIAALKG

4H2726-AA = molecular target: T8, 4H2726-AA; conditions: mean of both orientations
T8 chain: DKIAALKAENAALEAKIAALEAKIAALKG

4H2935-AA = molecular target: T9, 4H2935-AA; conditions: mean of both orientations
T9 chain: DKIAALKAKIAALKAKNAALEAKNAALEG

4H327-AA = molecular target: T10, 4H327-AA; conditions: mean of both orientations
T10 chain: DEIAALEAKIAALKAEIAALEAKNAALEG

4H3605-AA = molecular target: T11, 4H3605-AA; conditions: mean of both orientations
T11 chain: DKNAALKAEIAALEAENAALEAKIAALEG

4H3625-AA = molecular target: T12, 4H3625-AA; conditions: mean of both orientations
T12 chain: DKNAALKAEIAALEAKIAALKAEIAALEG

4H3664-AA = molecular target: T13, 4H3664-AA; conditions: mean of both orientations
T13 chain: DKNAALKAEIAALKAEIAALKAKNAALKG

4H369-AA = molecular target: T14, 4H369-AA; conditions: mean of both orientations
T14 chain: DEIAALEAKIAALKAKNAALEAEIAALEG

4H3922-AA = molecular target: T15, 4H3922-AA; conditions: mean of both orientations
T15 chain: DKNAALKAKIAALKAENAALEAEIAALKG

4H4033-AA = molecular target: T16, 4H4033-AA; conditions: mean of both orientations
T16 chain: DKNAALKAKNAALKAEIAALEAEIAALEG

4H481-AA = molecular target: T17, 4H481-AA; conditions: mean of both orientations
T17 chain: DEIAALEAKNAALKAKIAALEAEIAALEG

4H55-AA = molecular target: T18, 4H55-AA; conditions: mean of both orientations
T18 chain: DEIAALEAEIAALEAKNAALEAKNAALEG

4H662-AA = molecular target: T19, 4H662-AA; conditions: mean of both orientations
T19 chain: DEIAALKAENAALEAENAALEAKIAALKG

4H1874-AA = molecular target: T20, 4H1874-AA
T20 chain: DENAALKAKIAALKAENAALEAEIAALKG

4H2198-AA = molecular target: T21, 4H2198-AA; conditions: mean of both orientations
T21 chain: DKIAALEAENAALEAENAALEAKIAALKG

4H2553-AA = molecular target: T22, 4H2553-AA; conditions: mean of both orientations
T22 chain: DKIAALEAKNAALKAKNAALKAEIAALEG

4H2611-AA = molecular target: T23, 4H2611-AA; conditions: mean of both orientations
T23 chain: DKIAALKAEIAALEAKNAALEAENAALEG

4H2620-AA = molecular target: T24, 4H2620-AA; conditions: mean of both orientations
T24 chain: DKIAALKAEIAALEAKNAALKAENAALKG

4H2648-AA = molecular target: T25, 4H2648-AA; conditions: mean of both orientations
T25 chain: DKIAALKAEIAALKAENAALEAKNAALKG

4H2907-AA = molecular target: T26, 4H2907-AA; conditions: mean of both orientations
T26 chain: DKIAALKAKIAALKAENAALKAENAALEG

4H3056-AA = molecular target: T27, 4H3056-AA; conditions: mean of both orientations
T27 chain: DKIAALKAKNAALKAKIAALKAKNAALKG

4H3133-AA = molecular target: T28, 4H3133-AA; conditions: mean of both orientations
T28 chain: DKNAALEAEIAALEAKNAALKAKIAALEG

4H3162-AA = molecular target: T29, 4H3162-AA; conditions: mean of both orientations
T29 chain: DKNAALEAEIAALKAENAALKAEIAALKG

4H32-AA = molecular target: T30, 4H32-AA; conditions: mean of both orientations
T30 chain: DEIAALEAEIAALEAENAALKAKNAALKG

4H3378-AA = molecular target: T31, 4H3378-AA; conditions: mean of both orientations
T31 chain: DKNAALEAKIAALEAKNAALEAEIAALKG

4H340-AA = molecular target: T32, 4H340-AA; conditions: mean of both orientations
T32 chain: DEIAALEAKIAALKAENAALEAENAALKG

4H3413-AA = molecular target: T33, 4H3413-AA; conditions: mean of both orientations
T33 chain: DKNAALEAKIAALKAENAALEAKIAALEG

4H3588-AA = molecular target: T34, 4H3588-AA; conditions: mean of both orientations
T34 chain: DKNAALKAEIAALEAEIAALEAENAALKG

4H3606-AA = molecular target: T35, 4H3606-AA; conditions: mean of both orientations
T35 chain: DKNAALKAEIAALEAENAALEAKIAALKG

4H3631-AA = molecular target: T36, 4H3631-AA; conditions: mean of both orientations
T36 chain: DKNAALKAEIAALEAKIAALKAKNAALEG

4H3697-AA = molecular target: T37, 4H3697-AA; conditions: mean of both orientations
T37 chain: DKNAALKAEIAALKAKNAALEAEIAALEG

4H3718-AA = molecular target: T38, 4H3718-AA; conditions: mean of both orientations
T38 chain: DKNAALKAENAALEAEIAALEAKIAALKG

4H384-AA = molecular target: T39, 4H384-AA; conditions: mean of both orientations
T39 chain: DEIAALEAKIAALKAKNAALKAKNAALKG

4H3865-AA = molecular target: T40, 4H3865-AA; conditions: mean of both orientations
T40 chain: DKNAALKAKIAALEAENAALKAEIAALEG

4H697-AA = molecular target: T41, 4H697-AA; conditions: mean of both orientations
T41 chain: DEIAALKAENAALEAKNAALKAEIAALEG

4H982-AA = molecular target: T42, 4H982-AA; conditions: mean of both orientations
T42 chain: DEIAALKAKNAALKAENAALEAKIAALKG

B1: P1-AA-1HGe-T (peptide)
chain: DEIAALEATNAALTAENAALEAEIAALEG
interaction score (P2-AA-1HGe-A): 2.18
interaction score (P2-AA-1HGe-D): 1.17
interaction score (P2-AA-1HGe-M): 1.53
interaction score (P2-AA-1HGe-Q): 2.05
interaction score (P2-AA-1HGe-T): 2
interaction score (P2-AA): 2.07

B2: 4H2614-AA (peptide)
chain: DKIAALKAEIAALEAKNAALEAKIAALKG
interaction score (4H2614-AA): 1.46
interaction score (4H2726-AA): -0.336
interaction score (4H2935-AA): 0.084
interaction score (4H327-AA): -0.0398
interaction score (4H3605-AA): -0.49
interaction score (4H3625-AA): 0.314
interaction score (4H3664-AA): -1.11
interaction score (4H369-AA): 2.41
interaction score (4H3922-AA): 0.659
interaction score (4H4033-AA): -1.43
interaction score (4H481-AA): 1.06
interaction score (4H55-AA): -0.185
interaction score (4H662-AA): -1.17

B3: 4H1874-AA (peptide)
chain: DENAALKAKIAALKAENAALEAEIAALKG
interaction score (4H1874-AA): 1.18
interaction score (4H2198-AA): -1.15
interaction score (4H2553-AA): -1.21
interaction score (4H2611-AA): -1.33
interaction score (4H2620-AA): 1.59
interaction score (4H2648-AA): -1.44
interaction score (4H2907-AA): -1.61
interaction score (4H3056-AA): -0.229
interaction score (4H3133-AA): 1.46
interaction score (4H3162-AA): 1.38
interaction score (4H32-AA): 1.23
interaction score (4H3378-AA): -0.221
interaction score (4H340-AA): -1.94
interaction score (4H3413-AA): -1.35
interaction score (4H3588-AA): -1.22
interaction score (4H3606-AA): 2.08
interaction score (4H3631-AA): -1.14
interaction score (4H3697-AA): -0.269
interaction score (4H3718-AA): -1.5
interaction score (4H384-AA): -0.973
interaction score (4H3865-AA): 1.13
interaction score (4H697-AA): 1.47
interaction score (4H982-AA): -1.36

B4: P1-AA-1HGe-D (peptide)
chain: DEIAALEADNAALDAENAALEAEIAALEG
interaction score (P2-AA-1HGe-A): 1.58
interaction score (P2-AA-1HGe-D): 0.303
interaction score (P2-AA-1HGe-M): 1.74
interaction score (P2-AA-1HGe-Q): 2.03
interaction score (P2-AA-1HGe-T): 1.92
interaction score (P2-AA): 1.91

— PMC10397247
